Measured values from patent publication US20200181261A1.

Assays:
[1] = target: human CEACAM6, full-length, on cells (human) (UniProt P40199); test: FACS, 5 µg/ml, KS cells
[2] = target: human CEACAM6, full-length, on cells (human) (UniProt P40199); test: FACS, 5 µg/ml, A549 cells
[3] = target: human CEACAM6, full-length, on cells (human) (UniProt P40199); test: FACS, 5 µg/ml, HPAC cells
[4] = target: human CEACAM6, full-length, on cells (human) (UniProt P40199); test: FACS, 5 µg/ml, HT29 cells
[5] = target: human CEACAM6, full-length, on cells (human) (UniProt P40199); test: FACS, 5 µg/ml, HT55 cells
[6] = target: human CEACAM6, full-length, on cells (human) (UniProt P40199); test: FACS, 5 µg/ml, LoVo cells
[7] = target: human CEACAM6, full-length, on cells (human) (UniProt P40199); test: FACS, 5 µg/ml, MCF7 cells
[8] = target: human CEACAM6, full-length, on cells (human) (UniProt P40199); test: FACS, 5 µg/ml, WiDr cells
[9] = target: human CEACAM6, full-length, on cells (human) (UniProt P40199); test: FACS, 5 µg/ml, BxPc3 cells
[10] = target: human CEACAM6, full-length, on cells (human) (UniProt P40199); test: FACS, 5 µg/ml, CL-34 cells
[11] = target: human CEACAM6, full-length, on cells (human) (UniProt P40199); test: FACS, 5 µg/ml, DAN-G cells
[12] = target: human CEACAM6, full-length, on cells (human) (UniProt P40199); test: FACS, 5 µg/ml, KM-12 cells
[13] = target: human CEACAM6, full-length, on cells (human) (UniProt P40199); test: FACS, 5 µg/ml, SNU-1 cells
[14] = target: human CEACAM6, full-length, on cells (human) (UniProt P40199); test: FACS, 5 µg/ml, T-47D cells
[15] = target: human CEACAM6, full-length, on cells (human) (UniProt P40199); test: FACS, 5 µg/ml, AsPC-1 cells
[16] = target: human CEACAM6, full-length, on cells (human) (UniProt P40199); test: FACS, 5 µg/ml, BT-474 cells
[17] = target: human CEACAM6, full-length, on cells (human) (UniProt P40199); test: FACS, 5 µg/ml, Calu-3 cells
[18] = target: human CEACAM6, full-length, on cells (human) (UniProt P40199); test: FACS, 5 µg/ml, HCC827 cells
[19] = target: human CEACAM6, full-length, on cells (human) (UniProt P40199); test: FACS, 5 µg/ml, HPAFII cells
[20] = target: human CEACAM6, full-length, on cells (human) (UniProt P40199); test: FACS, 5 µg/ml, SNU-C1 cells
[21] = target: human CEACAM6, full-length, on cells (human) (UniProt P40199); test: FACS, 5 µg/ml, SW1116 cells
[22] = target: human CEACAM6, full-length, on cells (human) (UniProt P40199); test: FACS, transfected HeLa cells
[23] = target: human CEACAM6, full-length, on cells (human) (UniProt P40199); test: FACS, 5 µg/ml, HCC2998 cells
[24] = target: human CEACAM6, full-length, on cells (human) (UniProt P40199); test: FACS, 5 µg/ml, ZR-75-1 cells
[25] = target: human CEACAM6, full-length, on cells (human) (UniProt P40199); test: FACS, 5 µg/ml, HCC-2935 cells
[26] = target: human CEACAM6, full-length, on cells (human) (UniProt P40199); test: FACS, 5 µg/ml, NCI-H441 cells
[27] = target: human CEACAM6, full-length, on cells (human) (UniProt P40199); test: FACS, 5 µg/ml, NCI-H1437 cells
[28] = target: human CEACAM6, full-length, on cells (human) (UniProt P40199); test: FACS, 5 µg/ml, NCI-H1688 cells
[29] = target: human CEACAM6, full-length, on cells (human) (UniProt P40199); test: FACS, 5 µg/ml, NCI-H1993 cells
[30] = target: human CEACAM6, full-length, on cells (human) (UniProt P40199); test: FACS, 5 µg/ml, NCI-H2228 cells
[31] = target: human CEACAM6, full-length, on cells (human) (UniProt P40199); test: FACS, 5 µg/ml, RPMI-8226 cells
[32] = target: human CEACAM6, full-length, on cells (human) (UniProt P40199); test: FACS, 5 µg/ml, MCF7/AdrVp cells
[33] = target: human CEACAM6, full-length, on cells (human) (UniProt P40199); test: FACS, 5 µg/ml, MDA-MB-361 cells
[34] = target: human CEACAM6, extracellular (mature form), R&D Systems 3934-CM (human) (UniProt P40199); test: SPR, antibody captured, antigen as analyte
human CEACAM6, extracellular (mature form), R&D Systems 3934-CM (human), sequence (P40199 other isoform, or with tags, fused parts or gaps limits assumed): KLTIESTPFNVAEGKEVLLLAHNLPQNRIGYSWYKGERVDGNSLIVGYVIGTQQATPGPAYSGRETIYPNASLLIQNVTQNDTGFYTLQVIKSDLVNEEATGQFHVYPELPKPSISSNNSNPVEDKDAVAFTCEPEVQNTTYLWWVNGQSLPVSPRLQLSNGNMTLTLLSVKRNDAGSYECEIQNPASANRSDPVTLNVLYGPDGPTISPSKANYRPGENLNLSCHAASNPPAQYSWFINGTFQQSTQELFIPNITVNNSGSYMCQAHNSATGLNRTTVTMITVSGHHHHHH

human CEACAM6, full-length, on cells (human), sequence (P40199 35-320 V239G): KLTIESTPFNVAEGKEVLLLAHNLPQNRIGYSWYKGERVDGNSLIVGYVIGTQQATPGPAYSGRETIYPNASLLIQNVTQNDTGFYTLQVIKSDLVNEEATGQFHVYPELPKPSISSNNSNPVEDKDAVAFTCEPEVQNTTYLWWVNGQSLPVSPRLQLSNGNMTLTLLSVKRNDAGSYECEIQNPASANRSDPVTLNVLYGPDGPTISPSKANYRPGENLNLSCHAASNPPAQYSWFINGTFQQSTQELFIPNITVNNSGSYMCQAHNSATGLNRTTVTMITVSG

Substance: 9A6 (mouse IgG1) (antibody)
- FACS median fluorescence (medianfluorescence) [1]: 1000 to 10000
- FACS median fluorescence (medianfluorescence) [2]: 1000 to 10000
- FACS median fluorescence (medianfluorescence) [3]: > 10000
- FACS median fluorescence (medianfluorescence) [4]: 100 to 1000
- FACS median fluorescence (medianfluorescence) [5]: 1000 to 10000
- FACS median fluorescence (medianfluorescence) [6]: 100 to 1000
- FACS median fluorescence (medianfluorescence) [7]: 10 to 100
- FACS median fluorescence (medianfluorescence) [8]: 100 to 1000
- FACS median fluorescence (medianfluorescence) [9]: 1000 to 10000
- FACS median fluorescence (medianfluorescence) [10]: 10 to 100
- FACS median fluorescence (medianfluorescence) [11]: 10 to 100
- FACS median fluorescence (medianfluorescence) [12]: 100 to 1000
- FACS median fluorescence (medianfluorescence) [13]: 1000 to 10000
- FACS median fluorescence (medianfluorescence) [14]: 10 to 100
- FACS median fluorescence (medianfluorescence) [15]: 1000 to 10000
- FACS median fluorescence (medianfluorescence) [16]: 1000 to 10000
- FACS median fluorescence (medianfluorescence) [17]: 10 to 100
- FACS median fluorescence (medianfluorescence) [18]: 100 to 1000
- FACS median fluorescence (medianfluorescence) [19]: 1000 to 10000
- FACS median fluorescence (medianfluorescence) [20]: 100 to 1000
- FACS median fluorescence (medianfluorescence) [21]: 1000 to 10000
- FACS median fluorescence (medianfluorescence) [22]: 1000 to 10000
- FACS median fluorescence (medianfluorescence) [23]: 100 to 1000
- FACS median fluorescence (medianfluorescence) [24]: 100 to 1000
- FACS median fluorescence (medianfluorescence) [25]: > 10000
- FACS median fluorescence (medianfluorescence) [26]: 100 to 1000
- FACS median fluorescence (medianfluorescence) [27]: 1000 to 10000
- FACS median fluorescence (medianfluorescence) [28]: 10 to 100
- FACS median fluorescence (medianfluorescence) [29]: 1000 to 10000
- FACS median fluorescence (medianfluorescence) [30]: 100 to 1000
- FACS median fluorescence (medianfluorescence) [31]: 10 to 100
- FACS median fluorescence (medianfluorescence) [32]: 10 to 100
- FACS median fluorescence (medianfluorescence) [33]: 1000 to 10000
- Kd [34]: 22 nM
